The source of these data is paper PMC4559962, “Wss1 metalloprotease partners with Cdc48/Doa1 in processing genotoxic SUMO conjugates” (eLife, 2015).

Broadly, the stoichiometry N is a count of units in the complex or per binding partner.

Sequences and labels used below:
B2: MBP-Wss1 (wild type) (enzyme, S. cerevisiae, UniProt P38838 1-269, looked up)
chain: MKTEGIKSPSAKYHDMAGSQRIPHKNPHIQKVAVLQSKPNKEDALNLIKEIAHKVSYLMKENHFKVTNLVEFYPRDQRLLGMNVNHGSKIMLRLRCSTDEFQFLPMECIMGTMLHELTHNLFGPHDKKFYNKLDELIGRQWVIEQRGLYDTFLGNGQRLGGRANLRSNRYPMTGISTNTGIVRKRGKGVKLGSLHPEGISSIDRGNSPRELAAFAAERRYRDDRWCGETKNNKDQIISDNISSSLEVVILDDDDEVLPGDTLIEVIDLT
notes: Wss1, yeast metalloprotease; Expressed with the pMAL-c2 vector; also called MBP-Wss1 WT; Wss1-beads (CNBr-crosslinked MBP-Wss1 beads); source: E. coli BL21pLysS (DE3), purified on amylose resin, eluted with maltose
B3: his6-Flag (HF)-Doa1 (natural protein, S. cerevisiae, UniProt P36037 1-715, looked up)
chain: MGYQLSATLKGHDQDVRDVVAVDDSKVASVSRDGTVRLWSKDDQWLGTVVYTGQGFLNSVCYDSEKELLLFGGKDTMINGVPLFATSGEDPLYTLIGHQGNVCSLSFQDGVVISGSWDKTAKVWKEGSLVYNLQAHNASVWDAKVVSFSENKFLTASADKTIKLWQNDKVIKTFSGIHNDVVRHLAVVDDGHFISCSNDGLIKLVDMHTGDVLRTYEGHESFVYCIKLLPNGDIVSCGEDRTVRIWSKENGSLKQVITLPAISIWSVDCMSNGDIIVGSSDNLVRIFSQEKSRWASEDEINELSTQVEKSTISSKTIEFDESKLSPYEILQSPGRKEGQIVVVKSPQGTIEAHQFSNSSWKKVGDVVGAGATGNDKKIEFEGKTYDYVFDVDIEDGKPPLKLPINVSDNPYTAADNFLARYELPMSYRDQVVQFILKNTNGISLDQPNDNASSSAVSPSKTSVMKVLPVKQYLIMENYNPDTIFNGIVKINSNEKTFDDEILAQIGGALHDIDESWELLLSFANTIRSNWEIKTPAYDIVRLIVKKLPYSSDIKDYIEEGLGNKNITLTMLTVRILVNCFNNENWGVKLLESNQVYKSIFETIDTEFSQASAKQSQNLAIAVSTLIFNYSALVTKGNSDLELLPIVADAINTKYGPLEEYQECEEAAYRLTVAYGNLATVEPTLRQFANSVTWLANIKRSYGNVPRFKDIFDDLS
notes: Doa1, Cdc48 cofactor
B4: GST-Cdc48 (full length) (enzyme, S. cerevisiae, UniProt P25694 1-835, looked up)
chain: MGEEHKPLLDASGVDPREEDKTATAILRRKKKDNMLLVDDAINDDNSVIAINSNTMDKLELFRGDTVLVKGKKRKDTVLIVLIDDELEDGACRINRVVRNNLRIRLGDLVTIHPCPDIKYATRISVLPIADTIEGITGNLFDVFLKPYFVEAYRPVRKGDHFVVRGGMRQVEFKVVDVEPEEYAVVAQDTIIHWEGEPINREDEENNMNEVGYDDIGGCRKQMAQIREMVELPLRHPQLFKAIGIKPPRGVLMYGPPGTGKTLMARAVANETGAFFFLINGPEVMSKMAGESESNLRKAFEEAEKNAPAIIFIDEIDSIAPKRDKTNGEVERRVVSQLLTLMDGMKARSNVVVIAATNRPNSIDPALRRFGRFDREVDIGIPDATGRLEVLRIHTKNMKLADDVDLEALAAETHGYVGADIASLCSEAAMQQIREKMDLIDLDEDEIDAEVLDSLGVTMDNFRFALGNSNPSALRETVVESVNVTWDDVGGLDEIKEELKETVEYPVLHPDQYTKFGLSPSKGVLFYGPPGTGKTLLAKAVATEVSANFISVKGPELLSMWYGESESNIRDIFDKARAAAPTVVFLDELDSIAKARGGSLGDAGGASDRVVNQLLTEMDGMNAKKNVFVIGATNRPDQIDPAILRPGRLDQLIYVPLPDENARLSILNAQLRKTPLEPGLELTAIAKATQGFSGADLLYIVQRAAKYAIKDSIEAHRQHEAEKEVKVEGEDVEMTDEGAKAEQEPEVDPVPYITKEHFAEAMKTAKRSVSDAELRRYEAYSQQMKASRGQFSNFNFNDAPLGTTATDNANSNNSAPSGAGAAFGSNAEEDDDLYS
notes: Cdc48, AAA ATPase; source: expressed in bacteria, purified

Details in all cases: both partners purified
The target in test [1] is B3. Put plainly: pull-down; purified HA-Wss1 (full length or truncated) on anti-HA beads with purified His6-Cdc48, GST-Cdc48 or HF-Doa1 (full length or truncated); western blot.
The target of test [2] is B3. Put plainly: pull-down; purified MBP-Wss1 proteins on amylose beads with purified Cdc48 or adaptor proteins; PAGE with Coomassie staining, western blot with α-His6, ImageJ. Background: In western blotting, separated proteins are transferred to a membrane and probed.
For test [3], the target named is B4. The experiment in a line: pull-down; Cdc48 complexes preformed from purified GST-Cdc48 with a double molar excess of adaptors; MBP-Wss1 added in stoichiometric amount; glutathione beads; PAGE with Coomassie staining, ImageJ.
Test [4] addresses B2. The experiment in a line: pull-down; purified MBP-Wss1 proteins on amylose beads with purified Cdc48 or adaptor proteins; PAGE with Coomassie staining, western blot with α-His6, ImageJ.

B1: HA-Wss1 (recombinant, wild type) (enzyme, S. cerevisiae, UniProt P38838 1-269, looked up)
chain: MKTEGIKSPSAKYHDMAGSQRIPHKNPHIQKVAVLQSKPNKEDALNLIKEIAHKVSYLMKENHFKVTNLVEFYPRDQRLLGMNVNHGSKIMLRLRCSTDEFQFLPMECIMGTMLHELTHNLFGPHDKKFYNKLDELIGRQWVIEQRGLYDTFLGNGQRLGGRANLRSNRYPMTGISTNTGIVRKRGKGVKLGSLHPEGISSIDRGNSPRELAAFAAERRYRDDRWCGETKNNKDQIISDNISSSLEVVILDDDDEVLPGDTLIEVIDLT
notes: Wss1, yeast metalloprotease (WLM family); Produced with the pRSET-B vector; also called WT; WT-Wss1; source: E. coli ArcticExpress (DE3), soluble, purified on anti-HA beads and eluted with HA peptide
B1: in test [1], the binding result is “binds”.
Turning to B2, the binding result in test [2] was “binds”. For the same molecule, the “stoichiometry N” value in test [3] was found to be 1.
B3: the “stoichiometry N” value in test [3] amounted to 1.
With B4, the “stoichiometry N” value in test [4] is 1.
